The values that follow come from patent US7923535B2, “Tryptophan as a functional replacement for ADP-ribose-arginine in recombinant proteins” (The United States of America as represented by the …, priority 2002, dated 2011).

The test system of series [1] is A549 cells. Description: Chromium release assay (defensin cytotoxicity). The series is classed as cell-based. The settings on record: 1.5 to 24 μM, 18 hours, 37° C., serum-free RPMI; compared with unmodified HNP-1. The protocol: Chromium-labeled A549 cells (American Type Culture Collection) were incubated (18 hours, 37° C.) in 100 μl of serum-free RPMI (Gibco Fluids Inc., Rockville, Md.) containing HNP-1, ADP-ribosyl-HNP-1, or HNP-1 with either an R:W substitution or an R:F substitution (1.5 to 24 μM) to quantify defensin cytotoxicity. Cytotoxicity is measured as the amount of chromium released from the cells (Panyutich et al., “Human neutrophil defensins and serpins form complexes and inactivate each other,” Am. J. Respir. Cell. Mol. Biol. 12:351-357, 1995).

The target in the next series is T1, HNP-1 (Homo sapiens, UniProt P59665).
T1 sequence (P59665 65-94 limits assumed): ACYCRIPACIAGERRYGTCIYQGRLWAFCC
Description: Blocking of HNP-1 cytotoxic activity (radial diffusion and chromium release assays after pre-incubation with HNP-1). The series is classed as cell-based. The settings on record: pre-incubated 1 hour at 37° C. with HNP-1 (100 nM, E. coli; 12 μM, chromium release). The protocol: HNP-1 (100 nM) is incubated for 1 hour at 37° C. with ADP-ribosylated HNP-1, or HNP-1 with either an R:W substitution or an R:F substitution (0-800 nM) before the initiation of the cytotoxicity assay on E. coli.
HNP-1 (12 μM) is incubated with ADP-ribosyl-HNP-1, or HNP-1 with either an R:W substitution or an R:F substitution (1.5-12 μM) for 1 hour at 37° C. before the initiation of the chromium release assay.

The test system of series [2] is Escherichia coli ATCC43827. The conditions noted are these: compared with unmodified HNP-1; see PCT/US03/04649; cited from earlier work.
In the next series the test system is CD3^+ T-cells. Nature of the series: Chemotaxis assay. The series is classed as cell-based, human. The conditions noted are these: 0.025 to 25 nM in lower chamber, 4 hours, 37° C. On the procedure: CD3^+ T-cells are isolated from human peripheral blood prepared by leukapheresis (NIH, Department of Transfusion Medicine, Bethesda, Md.) (Chertov et al., J. Biol. Chem. 271:2935-2940, 1996) and suspended in migration medium (RPMI 1640, 0.5% bovine serum albumin, 25 mM HEPES). Inserts coated with collagen IV (Becton Dickinson Labware, Bedford, Mass.) are placed into 24-well culture plates to form upper and lower chambers in each well. Upper chambers are wetted with migration medium, then 500 μl of migration medium with or without ADP-ribosyl-HNP-1, HNP-1, or with HNP-1 with either an R:W substitution or an R:F substitution (0.025 to 25 nM) are added to the lower chamber. Cells are added to the upper chamber and plates are incubated at 37° C. in 5% CO2 for 4 hours. Lymphocytes that migrate to the lower chamber are harvested by centrifugation and counted in a hematocytometer.

The test system of series [3] is A549 cells. Description: IL-8 production by A549 cells (indirect ELISA). The series is classed as cell-based. The conditions noted are these: concentrations of 0.75 and 1.5 μM; 12 or 24 hours; compared with the unmodified peptide. On the procedure:
[…] Culture medium is sampled after 12 or 24 hours of incubation and IL-8 content is assayed by indirect ELISA according to the manufacturer's instructions (R & D System Inc. Minneapolis, Minn.).
(In general: ELISA stands for enzyme-linked immunosorbent assay.)

As to “ADP-ribosylated HNP-1: human neutrophil peptide HNP-1 (alpha defensin) with ADP-ribosylated arginine”, the “cytotoxicity for A549 cells (chromium released)” value in the series on A549 cells [1] was “less cytotoxic than unmodified HNP-1”. Besides, the “effect on the cytotoxic activity of HNP-1” value with HNP-1 is “blocks the cytotoxic activity of HNP-1 in a concentration-dependent manner”. In addition, the “cytotoxicity for E. coli ATCC43827 in the radial diffusion assay” value in series [2] is “less cytotoxic than unmodified HNP-1”. Besides, the “ability to recruit T cells” value with CD3^+ T-cells is “retain their ability to recruit T cells”. In the series on A549 cells [3], the IL-8 release result was “significantly higher”.
